Measurements: PMC4948773, “Identification of Preferred DNA-Binding Sites for the Thermus thermophilus Transcriptional Regulator SbtR by the Combinatorial Approach REPSA” (PLoS ONE, 2016)

T1: SbtR (Thermus thermophilus HB8, UniProt Q5SLX6 1-189)
T1 sequence: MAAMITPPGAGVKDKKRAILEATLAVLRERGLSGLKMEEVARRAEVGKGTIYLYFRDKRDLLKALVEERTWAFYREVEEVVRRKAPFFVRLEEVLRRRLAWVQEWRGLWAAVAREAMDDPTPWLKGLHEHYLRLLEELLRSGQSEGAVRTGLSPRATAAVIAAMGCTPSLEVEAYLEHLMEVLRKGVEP

B1: m1 (dsDNA)
DNA 1: CTAGGAATTCGTGCAGAGGTGAATAGACTGGCCAGTCATTACCATCCCTCCAGAAGCTTGGAC
DNA 2: GTCCAAGCTTCTGGAGGGATGGTAATGACTGGCCAGTCTATTCACCTCTGCACGAATTCCTAG
B2: m3 (dsDNA)
DNA 1: CTAGGAATTCGTGCAGAGGTGAATTGTCTGGCCAGTCATTACCATCCCTCCAGAAGCTTGGAC
DNA 2: GTCCAAGCTTCTGGAGGGATGGTAATGACTGGCCAGACAATTCACCTCTGCACGAATTCCTAG
B3: m6 (dsDNA)
DNA 1: CTAGGAATTCGTGCAGAGGTGAATTGACTCGCCAGTCATTACCATCCCTCCAGAAGCTTGGAC
DNA 2: GTCCAAGCTTCTGGAGGGATGGTAATGACTGGCGAGTCAATTCACCTCTGCACGAATTCCTAG
B4: m2 (dsDNA)
DNA 1: CTAGGAATTCGTGCAGAGGTGAATTCACTGGCCAGTCATTACCATCCCTCCAGAAGCTTGGAC
DNA 2: GTCCAAGCTTCTGGAGGGATGGTAATGACTGGCCAGTGAATTCACCTCTGCACGAATTCCTAG
B5: m7 (dsDNA)
DNA 1: CTAGGAATTCGTGCAGAGGTGAATTGACTGCCCAGTCATTACCATCCCTCCAGAAGCTTGGAC
DNA 2: GTCCAAGCTTCTGGAGGGATGGTAATGACTGGGCAGTCAATTCACCTCTGCACGAATTCCTAG
B6: m4 (dsDNA)
DNA 1: CTAGGAATTCGTGCAGAGGTGAATTGAGTGGCCAGTCATTACCATCCCTCCAGAAGCTTGGAC
DNA 2: GTCCAAGCTTCTGGAGGGATGGTAATGACTGGCCACTCAATTCACCTCTGCACGAATTCCTAG
B7: m5 (dsDNA)
DNA 1: CTAGGAATTCGTGCAGAGGTGAATTGACAGGCCAGTCATTACCATCCCTCCAGAAGCTTGGAC
DNA 2: GTCCAAGCTTCTGGAGGGATGGTAATGACTGGCCTGTCAATTCACCTCTGCACGAATTCCTAG
B8: SbtR, transcriptional regulator encoded by the Thermus thermophilus HB8 TTHA0167 gene (natural protein, UniProt Q5SLX6 1-189, looked up)
chain: MAAMITPPGAGVKDKKRAILEATLAVLRERGLSGLKMEEVARRAEVGKGTIYLYFRDKRDLLKALVEERTWAFYREVEEVVRRKAPFFVRLEEVLRRRLAWVQEWRGLWAAVAREAMDDPTPWLKGLHEHYLRLLEELLRSGQSEGAVRTGLSPRATAAVIAAMGCTPSLEVEAYLEHLMEVLRKGVEP
modifications: intermolecular disulfide bond (disulfide-linked dimeric species)
notes: SbtR, TetR/AcrR family transcriptional regulator, Thermus thermophilus HB8, TTHA0167 (sbtR) gene in pET-11a; 189 amino acid residues, 21,539 Da; called wild-type SbtR; It says the plasmid holds the TTHA0167 gene and reckons the stock concentration from the 189-residue protein; also called SbtR2; SbtR dimer; source: E. coli BL21(DE3) with pET-sbtR, IPTG-induced; soluble extract heated at 70°C for …
B9: SbtR mini probe 22-bp (dsDNA)
DNA 1: GCCCTGACTGGCCAGTCACCCG
DNA 2: CGGGTGACTGGCCAGTCAGGGC

Legend:
SbtR [1] = target: T1, SbtR; experiment: BLI; EMSA/REPA: 50 mM K acetate, 20 mM Tris acetate, 10 mM Mg acetate, BSA (CutSmart), pH 7.9, binding 55 C 20 min (REPA cleavage 37 C); BLI: 20 mM Tris-Cl pH 7.7, 100 mM NaCl, 1 mM EDTA, 0.05% Tween 20, 30 C (hydration step; binding temperature not separately stated); concentrations as SbtR dimer; details: protein: recombinant; tags: none stated (pET-11a, wild-type); chain copies: 2; label: 5' biotin-dT on strand 2 (extra 5' T in primer)
[2] = target: the molecule itself; experiment: SDS-PAGE with and without reductant; Coomassie-stained 4-20% SDS-PAGE gradient gel; purified SbtR loaded under standard reducing conditions or under oxidizing conditions (Laemmli loading buffer lacking reductant)
SbtR [3] = target: T1, SbtR; experiment: EMSA; S1 complex, apparent; EMSA/REPA: 50 mM K acetate, 20 mM Tris acetate, 10 mM Mg acetate, BSA (CutSmart), pH 7.9, binding 55 C 20 min (REPA cleavage 37 C); BLI: 20 mM Tris-Cl pH 7.7, 100 mM NaCl, 1 mM EDTA, 0.05% Tween 20, 30 C (hydration step; binding temperature not separately stated); concentrations as SbtR dimer; details: protein: recombinant; tags: none stated (pET-11a, wild-type); chain copies: 2; label: 5' IRDye700 on strand 1; blunt

Binder	Kd (SbtR [1])	further results
B1	0.551 nM	–
B2	2.18 nM	–
B3	0.159 nM	–
B4	7.11 nM	–
B5	0.839 nM	–
B6	1.24 nM	–
B7	15.5 nM	–
B8	–	stoichiometry N [2]: 2
B9	–	Kd (SbtR [3]): 5 nM
